# Assay results reported in the supplement of paper PMC7125110.
# ± gives the standard error. This sample holds only a part of the variants without activity.
# B1: glmS ribozyme (parent)
# chain: AUAAAAGCGCCAGAACUACAGAAAUGUAGUUGACGAGGAGGAGGUUUAUCGAAUUUUCGGCGGAUGCCUCCAAA
# Legend:
# Details in all cases: with glucosamine-6-phosphate
# glucosamine-6-phosphate [1] = variants of: B1; test: self-cleavage kobs at 40 uM GlcN6P; higher = faster cleavage; RNA array
# Summary of the method: (§1)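 Barcoded ribozyme variants on sequenced MiSeq chips were transcribed in situ by E. coli RNA polymerase and followed at 37 °C through a hybridised Cy3 probe. Glucosamine-6-phosphate at 40 μM to 10 mM in HEPES/KCl/Mg(OAc)2 buffer was flowed in, and tiles were imaged over ~14 h. Signals were normalised to baseline and to non-cleaving reference variants, and per-tile medians were fit to one- or two-exponential decays to give kobs. Weighted Michaelis–Menten fits across concentrations gave kcat and KM.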
# glucosamine-6-phosphate [2] = variants of: B1; test: self-cleavage kobs at 640 uM GlcN6P; higher = faster cleavage; RNA array
# Summary of the method: as §1
# glucosamine-6-phosphate [3] = variants of: B1; test: self-cleavage kobs at 2500 uM GlcN6P; higher = faster cleavage; RNA array
# Summary of the method: as §1
# glucosamine-6-phosphate [4] = variants of: B1; test: self-cleavage kobs at 10000 uM GlcN6P; higher = faster cleavage; RNA array
# Summary of the method: as §1
# glucosamine-6-phosphate [5] = variants of: B1; test: self-cleavage kobs at 160 uM GlcN6P; higher = faster cleavage; RNA array
# Summary of the method: as §1
Variant,self-cleavage kobs at 40 uM GlcN6P (glucosamine-6-phosphate [1]),self-cleavage kobs at 640 uM GlcN6P (glucosamine-6-phosphate [2]),self-cleavage kobs at 2500 uM GlcN6P (glucosamine-6-phosphate [3]),self-cleavage kobs at 10000 uM GlcN6P (glucosamine-6-phosphate [4]),self-cleavage kobs at 160 uM GlcN6P (glucosamine-6-phosphate [5])
G29U U55G,4.62e-05 ± 1.1e-05 s⁻¹,0.000282 ± 5.3e-05 s⁻¹,0.00177 ± 0.00029 s⁻¹,0.00239 ± 0.0003 s⁻¹,–
G32U G62A,< 1e-05 s⁻¹,< 1e-05 s⁻¹,< 1e-05 s⁻¹,< 1e-05 s⁻¹,–
U31A C61A A64U,< 1e-05 s⁻¹,–,–,< 1e-05 s⁻¹,–
G32C G44C U55C C68A C70U,< 1e-05 s⁻¹,–,< 1e-05 s⁻¹,–,–
U31A U45G U54G C58A C61A,< 1e-05 s⁻¹,–,–,< 1e-05 s⁻¹,< 1e-05 s⁻¹
G32C U47G C67G,0.000392 ± 0.00015 s⁻¹,–,–,6.01e-05 ± 2.5e-05 s⁻¹,–
G32U G35A U57C,< 1e-05 s⁻¹,–,–,–,< 1e-05 s⁻¹
U30C G43A U46A,< 1e-05 s⁻¹,–,–,–,–
A33C G41C U47C A53G U54C U65G C70U,< 1e-05 s⁻¹,–,–,< 1e-05 s⁻¹,–
U30G U47A,0.000162 ± 3.5e-05 s⁻¹,–,–,0.00566 ± 0.0013 s⁻¹,–
G32A A53U U65C,< 1e-05 s⁻¹,< 1e-05 s⁻¹,–,–,< 1e-05 s⁻¹
G32U G44A,< 1e-05 s⁻¹,–,–,–,–
G29U G35A A48G A53C,< 1e-05 s⁻¹,< 1e-05 s⁻¹,–,–,–
G32A G43U C67U,< 1e-05 s⁻¹,–,< 1e-05 s⁻¹,–,–
G29C U49G C58A,< 1e-05 s⁻¹,–,–,–,–
G32U U69G,7.55e-05 ± 1.7e-05 s⁻¹,0.000345 ± 8.4e-05 s⁻¹,–,9.29e-05 ± 1.7e-05 s⁻¹,–
U31A A64C,< 1e-05 s⁻¹,–,–,4.57e-05 ± 1e-05 s⁻¹,–
U30A C61U,< 1e-05 s⁻¹,< 1e-05 s⁻¹,–,< 1e-05 s⁻¹,–
G32A G44C C71G,< 1e-05 s⁻¹,–,–,< 1e-05 s⁻¹,–
U30A G62A,< 1e-05 s⁻¹,< 1e-05 s⁻¹,< 1e-05 s⁻¹,< 1e-05 s⁻¹,–
G32U A52C U55G C61U,< 1e-05 s⁻¹,–,–,< 1e-05 s⁻¹,–
G32U G37U A39G,< 1e-05 s⁻¹,–,< 1e-05 s⁻¹,–,–
A33C A36G G40A,< 1e-05 s⁻¹,< 1e-05 s⁻¹,< 1e-05 s⁻¹,< 1e-05 s⁻¹,–
G29U A42C C58A C67G,< 1e-05 s⁻¹,< 1e-05 s⁻¹,< 1e-05 s⁻¹,–,–
A33C G51A G66A C70G,< 1e-05 s⁻¹,–,–,–,–
G32C U47C,< 1e-05 s⁻¹,–,–,–,< 1e-05 s⁻¹
